# T1: 生物素标记的TIGIT (Acrobiosystems, TIT-H82E5) (UniProt Q495A1)
# T1 sequence (biotin-labelled (生物素标记), site not stated, looked up): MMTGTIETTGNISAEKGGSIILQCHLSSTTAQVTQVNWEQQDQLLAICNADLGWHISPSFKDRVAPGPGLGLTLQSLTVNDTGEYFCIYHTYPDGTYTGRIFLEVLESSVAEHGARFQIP
# T2: TIGIT on 293T-TIGIT cells (UniProt Q495A1 22-244)
# T2 construct: whole, on cells; also called 细胞膜上TIGIT; 293T-TIGIT细胞
# T2 sequence (looked up): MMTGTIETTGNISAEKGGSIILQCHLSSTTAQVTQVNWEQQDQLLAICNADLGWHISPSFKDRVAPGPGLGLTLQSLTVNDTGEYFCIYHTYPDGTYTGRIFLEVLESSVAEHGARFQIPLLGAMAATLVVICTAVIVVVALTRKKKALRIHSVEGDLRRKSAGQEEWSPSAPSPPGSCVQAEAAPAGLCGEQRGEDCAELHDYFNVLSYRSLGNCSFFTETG
# T3: 生物素标记的TIGIT (Acrobiosystems, TIT-H82E5) (UniProt Q495A1 22-141, biotin-labelled (生物素标记), site not stated)
# T3 sequence (looked up): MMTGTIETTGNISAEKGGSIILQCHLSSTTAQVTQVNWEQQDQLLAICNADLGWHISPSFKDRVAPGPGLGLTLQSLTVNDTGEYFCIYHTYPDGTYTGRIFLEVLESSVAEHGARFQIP
# T4: 人TIGIT蛋白 (Acrobiosystems, TIT-H52H3) (human, UniProt Q495A1 22-141)
# T4 construct: Bought recombinant protein coated on ELISA plates
# T4 sequence (looked up): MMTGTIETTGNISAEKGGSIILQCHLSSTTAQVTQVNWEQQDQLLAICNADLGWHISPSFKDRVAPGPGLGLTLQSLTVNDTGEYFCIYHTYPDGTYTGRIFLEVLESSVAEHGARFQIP
# Assays:
# [1] = molecular target: T1, 生物素标记的TIGIT (Acrobiosystems, TIT-H82E5); test: competition ELISA, control IgG, inhibition of biotinylated TIGIT binding to coated CD155
# [2] = molecular target: T2, TIGIT on 293T-TIGIT cells; test: flow cytometry on 293T-TIGIT cells, FITC goat anti-mouse IgG detection
# [3] = molecular target: T3, 生物素标记的TIGIT (Acrobiosystems, TIT-H82E5); test: competition ELISA, blocking of biotinylated TIGIT binding to coated CD112
# [4] = molecular target: T3, 生物素标记的TIGIT (Acrobiosystems, TIT-H82E5); test: competition ELISA, blocking of biotinylated TIGIT binding to coated CD155
# [5] = molecular target: T4, 人TIGIT蛋白 (Acrobiosystems, TIT-H52H3); test: ELISA, human TIGIT protein coated at 0.5 μg/ml, goat anti-mouse IgG detection
抑制率(%) [1],EC50 [2],IC50 [3],IC50 [4],EC50 [5],Molecule
1.68%,–,–,–,–,IgG1 (antibody)
–,0.0113 nM,3.97 nM,0.804 nM,0.108 nM,"7D3 (antibody, V domains shown, Mouse monoclonal antibody from a hybridoma (BALB/c x SP2/0); also called 鼠源抗体; 鼠源抗TIGIT抗体7D3) VH: EVQLQQSGPELVKPGASVKMSCKASGYTFTSYVMHWVKQKPGQGLEWIGYINPYNDGTKYNEKFKGKATLTSDKSSSTAYMELSSLTSEDSAVYYCARRGNGPLRVFAYWGQGTTVTVSS VL: DIVMTQTPKFMSTSVGDRVSITCKASQDVSTAVAWYQQKPGQSPKLLIYSASYRYTGVPDRFTGSGSGTDFTFTISSVQAEGLAVYYCQQHYSTPPTFGAGTKLEIK"

# Source: patent publication CN113150156A (ZHEJIANG BORUI BIOPHARMACEUTICAL CO LTD, dated 2021)
